Eight molecules from publication PMC11058270, “Discovering a mitochondrion-localized BAHD acyltransferase involved in calystegine biosynthesis and engineering the production of 3β-tigloyloxytropane” (Nature Communications, 2024) can be followed below.

The target in data set [1] is T1, PcICS (isobutyryl CoA synthetase) (Pseudomonas chlororaphis, UniProt Q5CD72).
T1 construct: gene acsA; purified recombinant protein; tag and host for purification not described in main text
The data set is described as follows: enzyme assay, MS detection of tigloyl-CoA. It counts as biochemical.

The target of data set [2] is T2, TS (3β-tigloyloxytropane synthase; AbTS) (Atropa belladonna, UniProt A0AAF1BX09).
T2 construct: full-length codon-optimised CDS (TSopt) in pMAL-c5x, N-terminal MBP tag (cleavage not mentioned), E. coli BL21 (DE3), amylose resin
Description: steady-state kinetics, LC-MS product analysis. It is filed as biochemical. To be noted: co-substrate 3β-tropanol; 50 mM glycine-NaOH pH 8.6, 30 °C. From the text:
(§1) steady-state kinetics, LC-MS product analysis on TS (3β-tigloyloxytropane synthase; AbTS)

For data set [3], the system named is CN1[C@@H]2CC[C@H]1C[C@H](O)C2. The data set is described as follows: steady-state kinetics, LC-MS product analysis. It counts as biochemical, Atropa belladonna. To be noted: acyl donor tigloyl-CoA, 50 mM glycine-NaOH pH 8.6, 30 °C.
Source text: as §1

Data set [4] concerns C/C=C(\C)C(=O)SCCNC(=O)CCNC(=O)[C@H](O)C(C)(C)COP(=O)(O)OP(=O)(O)OC[C@H]1O[C@@H](n2cnc3c(N)ncnc32)[C@H](O)[C@@H]1OP(=O)(O)O. Description: steady-state kinetics, LC-MS product analysis. To be noted: co-substrate 3β-tropanol, 50 mM glycine-NaOH pH 8.6, 30 °C. It is filed as biochemical, Atropa belladonna.
Source text: as §1

For data set [5], the system named is CC(=O)SCCNC(=O)CCNC(=O)[C@H](O)C(C)(C)COP(=O)(O)OP(=O)(O)OC[C@H]1O[C@@H](n2cnc3c(N)ncnc32)[C@H](O)[C@@H]1OP(=O)(O)O. The data set is described as follows: steady-state kinetics, LC-MS product analysis. It counts as biochemical, Atropa belladonna. Particulars: co-substrate 3β-tropanol, 50 mM glycine-NaOH pH 8.6, 30 °C.
Source text: as §1

The subject of data set [6] is CC(C)(COP(=O)(O)OP(=O)(O)OC[C@H]1O[C@@H](n2cnc3c(N)ncnc32)[C@H](O)[C@@H]1OP(=O)(O)O)[C@@H](O)C(=O)NCCC(=O)NCCSC(=O)c1ccccc1. The data set is described as follows: steady-state kinetics, LC-MS product analysis. To be noted: co-substrate 3β-tropanol, 50 mM glycine-NaOH pH 8.6, 30 °C. It is filed as biochemical, Atropa belladonna.
Source text: as §1

As to `CC(C)(COP(=O)(O)OP(=O)(O)OC[C@H]1O[C@@H](n2cnc3c(N)ncnc32)[C@H](O)[C@@H]1OP(=O)(O)O)[C@@H](O)C(=O)NCCC(=O)NCCS` [CoA], in data set [1] (co-substrate tiglic acid), the “enzyme assay, MS detection of tigloyl-CoA” value is “purified PcICS catalyzed the synthesis of tigloyl-CoA from CoA and tiglic acid”.

By Km is commonly meant the concentration of substrate that gives half-maximal velocity. As for `CC(=O)SCCNC(=O)CCNC(=O)[C@H](O)C(C)(C)COP(=O)(O)OP(=O)(O)OC[C@H]1O[C@@H](n2cnc3c(N)ncnc32)[C@H](O)[C@@H]1OP(=O)(O)O` [acetyl-CoA], the Km in data set [2] was 90 ± 20 µM.

`CC(C)(COP(=O)(O)OP(=O)(O)OC[C@H]1O[C@@H](n2cnc3c(N)ncnc32)[C@H](O)[C@@H]1OP(=O)(O)O)[C@@H](O)C(=O)NCCC(=O)NCCSC(=O)c1ccccc1` [benzoyl-CoA]: the Km in data set [2] is 920 ± 580 µM.

Turning to `C/C=C(\C)C(=O)O` [tiglic acid], in data set [1] (co-substrate CoA), the “enzyme assay, MS detection of tigloyl-CoA” value was “purified PcICS catalyzed the synthesis of tigloyl-CoA from CoA and tiglic acid”.

The term kcat denotes the maximal rate divided by the concentration of active sites. By kcat/Km is commonly meant the second-order rate constant that governs catalysis at low substrate concentration. For the molecule “TS (3β-tigloyloxytropane synthase; AbTS) (Atropa belladonna)”, in data set [3], the Km was 360 ± 50 µM, the kcat came to 6.84 ± 0.3 s⁻¹ and the kcat/Km was found to be 19000 ± 1660 M⁻¹ s⁻¹. Moreover, in data set [4], the Km worked out at 20 ± 4 µM, the kcat was determined as 7.38 ± 0.25 s⁻¹ and the catalytic efficiency (kcat/Km) was determined as 338000 ± 49100 M⁻¹ s⁻¹.

With “TS (3β-tigloyloxytropane synthase; AbTS) (Atropa belladonna; F46I)”, the Km in data set [3] was 320 ± 60 µM; in data set [4] it was 410 ± 110 µM; in data set [5], 350 ± 120 µM; in data set [6] it was 370 ± 90 µM. Besides, the kcat in data set [3] was 1.44 ± 0.09 s⁻¹; in data set [4] it was 1.42 ± 0.17 s⁻¹; in data set [5] it was 0.005 ± 0.0008 s⁻¹; in data set [6], 0.04 ± 0.004 s⁻¹. Also, the kcat/Km in data set [3] stood at 4550 ± 594 M⁻¹ s⁻¹; in data set [4] it was 3590 ± 570 M⁻¹ s⁻¹; in data set [5] it was 16.2 ± 3.42 M⁻¹ s⁻¹; in data set [6], 99.3 ± 13.3 M⁻¹ s⁻¹.

Take “TS (3β-tigloyloxytropane synthase; AbTS) (Atropa belladonna; F46I/S40T)”: in data set [4], the Km amounted to 150 ± 20 µM, the kcat came out at 2.27 ± 0.1 s⁻¹ and the kcat/Km is 14800 ± 1370 M⁻¹ s⁻¹. Besides, in data set [6], the Km worked out at 260 ± 80 µM, the kcat was determined as 0.08 ± 0.008 s⁻¹ and the kcat/Km turned out to be 305 ± 54.1 M⁻¹ s⁻¹.

As to “TS (3β-tigloyloxytropane synthase; AbTS) (Atropa belladonna; S40T)”, the Km in data set [3] stood at 320 ± 70 µM; in data set [4], 20 ± 3 µM; in data set [5], 70 ± 10 µM; in data set [6], 840 ± 380 µM. The kcat came to 11.1 ± 0.81 s⁻¹ in data set [3], 11.4 ± 0.34 s⁻¹ in data set [4], 0.09 ± 0.004 s⁻¹ in data set [5] and 0.03 ± 0.006 s⁻¹ in data set [6]. In addition, the specificity constant (kcat/Km) in data set [3] came out at 35200 ± 5480 M⁻¹ s⁻¹; in data set [4] it was 572000 ± 72300 M⁻¹ s⁻¹; in data set [5], 1190 ± 155 M⁻¹ s⁻¹; in data set [6], 32.7 ± 6.77 M⁻¹ s⁻¹.
